Results as given in US20150079111A1, “MECHANISM, DIAGNOSTIC, AND TREATMENTS FOR COMPLICATIONS OF RENAL FAILURE” (priority 2012, published 2015).

Assays:
[1] = test system: renin-angiotensin-aldosterone (RAS) proteins AGT, ACE, AT1; experiment: RAS protein levels (AGT, ACE, AT1) in PTCs by Western blot; assay type: cell-based, human; conditions: PTCs treated, then exposed to 100 μg/ml of AOPPs (sample set D)
Experimental: (§1) Human Tubular Epithelial Cells (HUTEC) cells were cultured in DMEF/F-12 medium containing 10% fetal calf serum, penicillin (200 U/ml) and streptomycin (200 ug/ml) until confluence, and then left serum-free overnight.
In sample set D, the PTCs were treated with either copper-zinc superoxide dismutase (an […], c-SOD), one of two inhibitors of NADPH oxidase (either diphenyleneiodonium (DPI) or apocynin), a pan-PKC inhibitor (Go6983), or PKCα inhibitor (Go6976). The PTCs were then exposed to 100 μg/ml of AOPPs. The protein levels of downstream renin-angiotensin-aldosterone (RAS) proteins were measured relative to β-actin. The expression of […], ACE, and AT1 was examined by Western blot.

[2] = patients with type-2 diabetes; cited from earlier work
[3] = test system: p47phox, a subunit of NADPH oxidase; experiment: Phosphorylation of p47phox in AOPP-exposed proximal tubule cells (immunoprecipitation / co-immunoprecipitation); assay type: cell-based, human; conditions: PTCs incubated with inhibitor before AOPP exposure (sample set B)
Experimental: as §1
In sample set B, PTCs were incubated with either a pan-PKC inhibitor (Gö6983) or PKCα inhibitor (Gö6976) before AOPP exposure. Phosphorylation of p47phox was assayed by immunoprecipitation.
In sample set F, the level of phosphorylated p47phox in PTC cells was analyzed by co-immunoprecipitation.

[4] = test system: proximal tubule cells (PTCs); experiment: Intracellular ROS production in proximal tubule cells, fluorometric analysis; assay type: cell-based, human; conditions: PTCs pre-incubated or transfected, then exposed to AOPPs (sample set C)
Experimental: as §1
In sample set C, the PTC cells were pre-incubated with either a pan-PKC inhibitor (Gö6983), PKCα inhibitor (Gö6976), anti-RAGE antibody (a-RAGE), transfected with a CD36 siRNA (si-CD36), or both anti-RAGE antibody and transfected with CD36 siRNA (si-CD36+a-RAGE). The PTC cells were then exposed to AOPPs. Intracellular ROS production was determined by a fluorometric analysis.

[5] = test system: human microvascular endothelial cell (HMVECad); experiment: Intracellular ROS production in HMVECad cells, fluorometric analysis; assay type: cell-based; conditions: for intracellular ROS: HMVECads exposed to modified RSA versus control unmodified RSA; for intracellular ROS production: HMVECads, 100 μg/ml for 15, 30, 60 or 120 minutes, effect of exposure time
Source text: (§2) Interfering with human microvascular endothelial cell (HMVECad) SCARB1 expression or blocking the receptor using an antibody ameliorates the effect of MDA-protein or pentosidine-protein on intracellular ROS production. Cryopreserved HMVECads were purchased from Life Technologies and cultured according to the company's instructions in Medium 131 with attachment factor (M-131-500) and addition of Microvascular Growth Supplement until confluence, and then left serum-free overnight.
First, HMVECads were treated with 100 μg/ml of one of three solutions. The first solution (MDA-protein) was rat serum albumin (RSA) treated with an equimolar 1 mmol/L solution of malondialdehyde (MDA) and acetaldehyde for 3 days at 37° C. The second solution was pentosidine-RSA, prepared by incubating 0.5 mg of normal RSA with 0.1 M D-glucose in 0.5 ml of 0.1 M sodium phosphate at 37° C. for 14 days. The third solution (the control) was untreated RSA from the same batch. The HMVECads were treated for 15, 30, 60, or 120 minutes. Following the indicated time, intracellular ROS production was determined by a fluorometric analysis.
(§3) Next, the cells were pre-incubated with a polyclonal anti-SCARB1 antibody (a-SRB) or a polyclonal anti-CD36 antibody (a-CD36) or transfected with either SCARB1 siRNA (si-SRB) or CD36 siRNA (siCD36) before exposure to MDA-RSA or Pent-RSA as above. The pre-incubations were performed in various combinations. The labels beneath each set of bars indicate which pre-incubation and which exposure was made to that set. The bars labelled “NC-siRNA” were pre-incubated with scramble siRNA and exposed to untreated RSA. The dark bars are read using the left y-axis, and the white bars are read using the right y-axis.
(§4) The intracellular ROS was a proxy for NADPH oxidase activation and mitochondrial leakage, both of which are linked to cellular stress and induction of apoptosis. The phospho-PKCα measured membrane-associated PKC signalling induced by oxidation and linked to activation of NADPH oxidase and other cellular stressors.

PKCα = experiment: Phospho-PKCα (membrane-associated PKC signalling, cellular stress) in HMVECad cells; assay type: cell-based, human; conditions: HMVECads exposed to modified RSA versus control unmodified RSA
Source text: as §2
Next, the cells were pre-incubated with a polyclonal anti-SCARB1 antibody (a-SRB) or a polyclonal anti-CD36 antibody (a-CD36) or transfected with either SCARB1 siRNA (si-SRB) or CD36 siRNA (siCD36) before exposure to MDA-RSA or Pent-RSA as above. The pre-incubations were performed in various combinations. The labels beneath each set of bars indicate which pre-incubation and which exposure was made to that set. […] The dark bars are read using the left y-axis, and the white bars are read using the right y-axis.
as §4

AGT, ACE and AT1 = experiment: Expression of AGT, ACE and AT1 in HMVECad cells by Western blotting; assay type: cell-based, human; conditions: HMVECads, 60 minutes, modified RSA versus control
Source text: as §2, §3
After incubating for 60 minutes, the intracellular ROS production was again determined for the cells of FIG. 20 by a fluorometric analysis. The expression levels of AGT, ACE and AT1 were examined by Western blotting.

copper-zinc superoxide dismutase [c-SOD]
protein levels of RAS proteins (AGT, ACE, AT1) relative to β-actin [1]: lower levels of these proteins

c1ccc2c(c1)[I+]c1ccccc1-2 [DPI, diphenyleneiodonium]
protein levels of RAS proteins (AGT, ACE, AT1) relative to β-actin [1]: lower levels of these proteins

CC1(C)CC[C@]2(C(=O)O)CC[C@]3(C)[C@H](C(=O)C=C4[C@@]5(C)C=C(C#N)C(=O)C(C)(C)[C@@H]5CC[C@]43C)[C@@H]2C1 [bardoxolone]
nephroprotective effect [2]: nephroprotective

COc1cc(C(C)=O)ccc1O [apocynin]
protein levels of RAS proteins (AGT, ACE, AT1) relative to β-actin [1]: lower levels of these proteins

Cn1c2ccccc2c2c3c(c4c5ccccc5n(CCC#N)c4c21)CNC3=O [Gö6976, 12-(2-Cyanoethyl)-6,7,12,13-tetrahydro-13-methyl-5-oxo-5H-indolo(2,3-a)pyrrolo(3,4-c)-carbazole]
phosphorylation of p47phox [3]: p47phox is phosphorylated through pan-PKC or PKCα
intracellular ROS production [4]: Further reduction
protein levels of RAS proteins (AGT, ACE, AT1) relative to β-actin [1]: lower levels of these proteins

B1: MDA-RSA: rat serum albumin treated with an equimolar 1 mmol/L solution of malondialdehyde and acetaldehyde for 3 days at 37° C. (protein)
chain: EAHKSEIAHRFKDLGEQHFKGLVLIAFSQYLQKCPYEEHIKLVQEVTDFAKTCVADENAENCDKSIHTLFGDKLCAIPKLRDNYGELADCCAKQEPERNECFLQHKDDNPNLPPFQRPEAEAMCTSFQENPTSFLGHYLHEVARRHPYFYAPELLYYAEKYNEVLTQCCTESDKAACLTPKLDAVKEKALVAAVRQRMKCSSMQRFGERAFKAWAVARMSQRFPNAEFAEITKLATDVTKINKECCHGDLLECADDRAELAKYMCENQATISSKLQACCDKPVLQKSQCLAEIEHDNIPADLPSIAADFVEDKEVCKNYAEAKDVFLGTFLYEYSRRHPDYSVSLLLRLAKKYEATLEKCCAEGDPPACYGTVLAEFQPLVEEPKNLVKTNCELYEKLGEYGFQNAVLVRYTQKAPQVSTPTLVEAARNLGRVGTKCCTLPEAQRLPCVEDYLSAILNRLCVLHEKTPVSEKVTKCCSGSLVERRPCFSALTVDETYVPKEFKAETFTFHSDICTLPDKEKQIKKQTALAELVKHKPKATEDQLKTVMGDFAQFVDKCCKAADKDNCFATEGPNLVARSKEALA
intracellular ROS [5]: caused an increase in activity compared to the control
intracellular ROS production [5]: greater ROS production
phospho-PKCα (cellular stress signalling) (PKCα): caused an increase in activity compared to the control
expression levels of AGT, ACE and AT1 (AGT, ACE and AT1): caused an increase in activity compared to the control

B2: Pent-RSA: prepared by incubating normal RSA with 0.1 M D-glucose in sodium phosphate at 37° C. for 14 days (protein)
chain: B1 chain
intracellular ROS [5]: caused an increase in activity compared to the control
intracellular ROS production [5]: greater ROS production
phospho-PKCα (cellular stress signalling) (PKCα): caused an increase in activity compared to the control
expression levels of AGT, ACE and AT1 (AGT, ACE and AT1): caused an increase in activity compared to the control
